In US20220062373A1 (published 2022):

Biological target: T1, Recombinant human CD206 (MRC1/CD206) (human, UniProt P22897 19-1383)
T1 chain: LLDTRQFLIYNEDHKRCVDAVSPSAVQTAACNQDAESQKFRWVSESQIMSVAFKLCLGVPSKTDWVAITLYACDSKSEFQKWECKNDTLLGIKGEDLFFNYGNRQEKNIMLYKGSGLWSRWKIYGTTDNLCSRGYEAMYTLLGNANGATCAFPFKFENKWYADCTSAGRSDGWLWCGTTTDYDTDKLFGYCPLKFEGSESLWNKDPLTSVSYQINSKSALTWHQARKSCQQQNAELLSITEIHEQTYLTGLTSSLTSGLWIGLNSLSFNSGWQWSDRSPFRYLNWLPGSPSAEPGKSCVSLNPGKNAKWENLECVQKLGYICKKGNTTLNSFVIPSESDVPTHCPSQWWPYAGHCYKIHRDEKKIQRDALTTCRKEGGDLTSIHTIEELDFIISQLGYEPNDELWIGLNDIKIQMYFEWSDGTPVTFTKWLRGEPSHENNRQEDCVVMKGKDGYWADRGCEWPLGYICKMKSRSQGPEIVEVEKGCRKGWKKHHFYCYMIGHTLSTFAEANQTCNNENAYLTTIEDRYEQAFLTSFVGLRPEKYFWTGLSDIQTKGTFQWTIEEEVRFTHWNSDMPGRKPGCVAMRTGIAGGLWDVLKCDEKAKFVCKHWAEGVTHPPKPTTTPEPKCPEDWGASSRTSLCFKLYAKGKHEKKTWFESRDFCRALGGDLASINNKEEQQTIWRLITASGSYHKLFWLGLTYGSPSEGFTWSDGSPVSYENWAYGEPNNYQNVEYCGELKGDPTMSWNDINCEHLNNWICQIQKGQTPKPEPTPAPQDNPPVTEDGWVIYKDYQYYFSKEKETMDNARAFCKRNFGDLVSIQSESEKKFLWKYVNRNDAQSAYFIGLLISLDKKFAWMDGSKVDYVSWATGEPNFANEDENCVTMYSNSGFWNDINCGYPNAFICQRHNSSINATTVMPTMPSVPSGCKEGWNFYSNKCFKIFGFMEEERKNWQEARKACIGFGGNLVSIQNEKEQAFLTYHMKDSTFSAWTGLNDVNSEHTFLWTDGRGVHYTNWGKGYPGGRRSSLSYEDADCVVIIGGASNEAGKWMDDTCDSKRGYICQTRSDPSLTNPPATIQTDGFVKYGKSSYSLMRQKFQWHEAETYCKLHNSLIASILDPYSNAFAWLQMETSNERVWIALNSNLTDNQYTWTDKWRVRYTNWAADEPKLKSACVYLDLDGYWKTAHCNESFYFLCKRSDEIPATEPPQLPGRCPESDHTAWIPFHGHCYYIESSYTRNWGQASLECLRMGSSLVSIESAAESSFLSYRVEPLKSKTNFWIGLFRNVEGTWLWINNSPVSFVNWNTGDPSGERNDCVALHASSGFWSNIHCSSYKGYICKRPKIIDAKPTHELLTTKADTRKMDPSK
Assay: MST

KFRKAFKRFF [RP-182]
Kd: 8.37 µM
